B1: MBP-tagged human recombinant BP3 devoid of its signal peptide (natural protein, UniProt Q8TAT2 27-258, looked up)
chain: RREKGAASNVAEPVPGPTGGSSGRFLSPEQHACSWQLLLPAPEAAAGSELALRCQSPDGARHQCAYRGHPERCAAYAARRAHFWKQVLGGLRKKRRPCHDPAPLQARLCAGKKGHGAELRLVPRASPPARPTVAGFAGESKPRARNRGRTRERASGPAAGTPPPQSAPPKENPSERKTNEGKRKAALVPNEERPMGTGPDPDGLDGNAELTETYCAEKWHSLCNFFVNFWNG
notes: also called FGFBP3

Legend:
[1] = target: B1; experiment: ELISA; competitive binding; increasing excess of KLB or KLa bound to immobilised FGF19 or FGF21 (2.5 μg/ml) for 1 h before BP3 or MBP control (0.15 μg/ml); MaxiSorp plates; conditions: both partners purified
[2] = target: T1, Human recombinant FGFR4 Fc Chimera (human, UniProt P22455 22-369); experiment: binding to plate-coated receptor detected by western blot; cell-free; FGFR4 Fc chimera coated on MaxiSorp plates; FGF19 (2 μg/ml) ± BP3 or MBP control (1 μg/ml), 2 h room temperature; bound proteins blotted with anti-FGFR4, anti-MBP, anti-FGF19; conditions: both partners purified
T1 construct: Fibroblast growth factor receptor 4 (FGFR4), human, as Fc chimera; Commercial Fc chimeras of this kind hold the extracellular domain; source: bought: R&D Systems

binding result [1]	binding result [2]	Binder
binds	–	Recombinant human FGF21 (ligand, UniProt Q9NSA1 29-209, looked up, Fibroblast growth factor 21 (FGF21), human, recombinant; source: bought: R&D Systems) HPIPDSSPLLQFGGQVRQRYLYTDDAQQTEAHLEIREDGTVGGAADQSPESLLQLKALKPGVIQILGVKTSRFLCQRPDGALYGSLHFDPEACSFRELLLEDGYNVYQSEAHGLPLHLPGNKSPHRDPAPRGPARFLPLPGLPPALPEPPGILAPQPPDVGSSDPLSMVGPSQGRSPSYAS
–	binds	B1

Source: PMC6206164, “Fibroblast Growth Factor Binding Protein 3 (FGFBP3) impacts carbohydrate and lipid metabolism” (Scientific Reports, 2018)
